Measurements as given in US20220073565A1 (University of Washington, published 2022).
No end group written: not given here.

Assays:
Bcl2 [1] = target: T1, Bcl2 (UniProt P10415 1-207, limits assumed, biotinylated); experiment: bio-layer interferometry, Bcl2 immobilised, 250 nM BimLOCKR with and without key
T1 construct: Loaded on streptavidin biosensors; also called biotinylated Bcl2
Experimental: The range of key concentrations over which BimLOCKR is activated can be controlled by tuning KCK by varying the length of the key since the interaction energy is roughly proportional to the total surface area of interacting residues. […] Truncating an additional five residues completely negates key activation, indicating the equilibria are very sensitive to small changes in free energy as expected from our model (FIG. 2d). […] Bio-layer interferometry experiments were performed with target immobilized assayed against the switch with or without key in solution, as well as with key immobilized and assayed against the switch alone or with target in solution. […] This fit has an RMSE (root-mean-square-error) of 0.072 nm to the observed BLI data.
BLI measurements were made on an Octet® RED96 System (ForteBio) with streptavidin (SA) coated biosensors and all analysis was performed within ForteBio Data Analysis Software version 9.0.0.10. Assays were performed with protein diluted into HBS-EP+ Buffer from GE (10 mM HEPES, 150 mM NaCl, 3 mM EDTA, 0.05% v/v Surfactant P20, 0.5% non-fat dry milk, pH7.4 at room temperature). Biotinylated Bcl2 was loaded onto the SA tips to a threshold of 0.5 nm programmed into the machine's protocol.

Bcl2 [2] = target: T1, Bcl2; experiment: global fit of the thermodynamic model to bio-layer interferometry data (target or key immobilised)
BclB = target: T2, BclB (UniProt Q9HD36 11-178, limits assumed); experiment: as above
T2 construct: also called Bcl2 homolog BclB
T2 sequence (looked up): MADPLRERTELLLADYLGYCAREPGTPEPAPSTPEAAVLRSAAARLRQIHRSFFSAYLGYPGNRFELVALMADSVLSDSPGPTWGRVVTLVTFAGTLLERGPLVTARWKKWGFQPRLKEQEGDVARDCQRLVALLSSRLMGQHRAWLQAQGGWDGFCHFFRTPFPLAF

YFP-degronSwitcha = target: T3, YFP-degronSwitcha; experiment: cell-based or functional assay
T3 sequence: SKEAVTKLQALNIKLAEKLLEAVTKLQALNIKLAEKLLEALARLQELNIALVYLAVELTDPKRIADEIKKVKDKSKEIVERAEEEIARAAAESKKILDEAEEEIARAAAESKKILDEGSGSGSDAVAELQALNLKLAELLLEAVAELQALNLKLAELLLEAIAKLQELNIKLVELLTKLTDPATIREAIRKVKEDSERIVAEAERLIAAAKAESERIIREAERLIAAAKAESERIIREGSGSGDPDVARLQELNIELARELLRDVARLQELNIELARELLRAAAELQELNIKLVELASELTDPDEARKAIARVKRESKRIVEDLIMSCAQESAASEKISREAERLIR

[3] = target: dCas9-VP64-RFP-degronSwitcha; experiment: cell-based or functional assay
SynTF-RFP-degronSwitcha = experiment: cell-based or functional assay
mSin3A-PAH2 domain = target: T4, mSin3A-PAH2 domain (UniProt Q60520 300-383, biotin); experiment: bio-layer interferometry, Biotin-mSin3A-PAH2 on streptavidin tips
T4 construct: domain: PAH2; 0.1 µg immobilised on streptavidin biosensor tips; also called Biotin-mSin3A-PAH2; PAH2 domain of the mSin3A transcriptional repressor
T4 sequence (looked up): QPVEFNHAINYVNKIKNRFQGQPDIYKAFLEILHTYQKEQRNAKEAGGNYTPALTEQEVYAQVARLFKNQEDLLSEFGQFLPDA
Text: FIG. 12a-d: Designed Mad1-SID LOCKR switches for key-dependent transcriptional repression. FIG. 12a. Crystal structure of the interaction between Mad1-SID domain (white) and the PAH2 domain of the mSin3A transcriptional repressor (black) (PDB ID: 1E91). Caging of the Mad1-SID domain should enable key-dependent recruitment of the transcriptional repressor mSin3A enabling precise epigenetic regulation. FIG. 12b. Designed Mad1-LOCKR switches, with Cage component encoding the Mad1-SID sequence at different positions (dark gray). FIG. 12c. SDS-PAGE gel showing successfully purified 1fix302Mad1 (1) , 1fix_309_Mad1 (2) and MBP_Mad1 (3). FIG. 12d. Biolayer interferometry analysis of key-activated binding of the Mad1-LOCKR switches to the purified rnSin3A-PAH2 domain. MBP-Mad1 is a positive control for mSin3a-PAH2 binding. […] Kinetic assays were performed by immobilizing 0.1μg of Biotin-mSin3A-PAH2 protein on Streptavidin biosensor tips (ForteBio). Protein cages were tested at 50 nM in presence or absence of 500 nM Keyₐ.

Bcl2 [4] = target: T1, Bcl2; experiment: bio-layer interferometry (Octet), Bcl2 immobilised, switch with nine residue toehold

T1 sequence (P10415 1-207 limits assumed): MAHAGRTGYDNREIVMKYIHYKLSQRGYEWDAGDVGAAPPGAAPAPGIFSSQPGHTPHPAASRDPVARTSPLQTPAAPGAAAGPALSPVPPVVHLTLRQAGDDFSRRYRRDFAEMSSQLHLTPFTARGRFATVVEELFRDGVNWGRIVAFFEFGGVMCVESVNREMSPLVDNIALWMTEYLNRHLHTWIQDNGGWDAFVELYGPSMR

B1: BimLOCKR (18-residue extension with a 9 residue toehold) (designed binder)
chain: MGSSHHHHHHSSGLVPRGSHMSKEAVTKLQALNIKLAEKLLEAVTKLQALNIKLAEKLLEALARLQELNIALVYLAVELTDPKRIADEIKKVKDKSKEIVERAEEEIARAAAESKKILDEAEEEIARAAAESKKILDEGSGSGSDAVAELQALNLKLAELLLEAVAELQALNLKLAELLLEAIAKLQELNIKLVELLTKLTDPATIREAIRKVKEDSERIVAEAERLIAAAKAESERIIREAERLIAAAKAESERIIREGSGSGDPDVARLQELNIELARELLRDVARLQELNIELARELLRAAAELQELNIKLVELASELTDEIWIAQELRRIGDEFNAYYADAERLIREAAAASEKISREAERLIREAA
notes: the tested form has the latch truncated by nine residues at the C-terminus (toehold); also called BimLOCKRa
fold activation of binding by the key (with key against without key) (Bcl2 [1]): ~40 fold
Kd (Bcl2 [2]): 28 nM
Kd (BclB): 32 nM

B2: Keya-BFP (designed binder, not shown: large carriers)
chain: EARKAIARVKRESKRIVEDAERLIREAAAASEKISREAERLIREAAAASEKISRE
modifications: also: C-terminal fusion to BFP (mTagBFP2), linker not given here
reduction of YFP fluorescence (flow cytometry, S. cerevisiae) (YFP-degronSwitcha): < 73%
reduction of RFP fluorescence upon induction of Key at 31.25 nM E2 [3]: 78%
reduction of pTet7x-YFP reporter fluorescence upon induction of Key at 31.25 nM E2 [3]: 41%

B3: Keya-BFP-NLS (designed binder, not shown: large carriers)
chain: B2 chain
reduction of RFP fluorescence at 31.25 nM E2, maximal Key induction (SynTF-RFP-degronSwitcha): 61%
reduction of pSynTF-YFP reporter fluorescence at 31.25 nM E2, maximal Key induction (SynTF-RFP-degronSwitcha): 82%

B4: 1fix_302_Mad1 (designed binder)
chain: MGSHHHHHHGSGSENLYFQGSKEAAKKLQDLNIELARKLLEASTKLQRLNIRLAEALLEAIARLQELNLELVYLAVELTDPKRIRDEIKEVKDKSKEIIRRAEKEIDDAAKESKKILEEARKAIRDAAEESRKILEEGSGSGSDALDELQKLNLELAKLLLKAIAETQDLNLRAAKAFLEAAAKLQELNIRAVELLVKLTDPATIRRALEHAKRRSKEIIDEAERAIRAAKRESERIIEEARRLIEKAKEESERIIREGSGSGDPDIKKLQDLNIELARELLRAHAQLQRLNLELLRELLRALAQLQELNLDLLRLASELTNIQMLLEAADYLERESKRIVEDAERLIREAAAASEKISREAERSIREAAAASEKISRE
notes: Optional His-TEV tag printed in parentheses
binding result (mSin3A-PAH2 domain): no binding

B5: BimLOCKRc (nine residue toehold on the latch) (designed binder)
chain: MGSSHHHHHHSSGLVPRGSHMSLEAVLKLAELNLKLSDKLAEAVQKLAALLNKLLEKLSEALQRLFELNVALVTLAIELTDPKRIADEIKKVKDKSKEIVERAEEEIARAAAESKKILDEAEEEIARAAAESKKILDEGSGSGSDAVAELQALNLKLAELLLEAVAELQALNLKLAELLLEAIAKLQELNIKLVELLTKLTDPATIREAIRKVKEDSERIVAEAERLIAAAKAESERIIREAERLIAAAKAESERIIREGSGSNDPLVARLQELLIEHARELLRLVATSQEIFIELARAFLANAAQLQEAAIKAVEAASENGSGEIWIAQELRRIGDEFNAYYAQNQKLLKDHKRAQEKLNRELEELKKKHKK
notes: Entry is printed with full latch and optional His tag; tested with a nine residue toehold (latch truncated by nine residues)
fold activation of binding by the cognate key (with key against without key) (Bcl2 [4]): 8 fold

B6: BimLOCKRb (nine residue toehold on the latch) (designed binder)
chain: MGSSHHHHHHSSGLVPRGSHMSHAAVIKLSDLNIRLLDKLLQAVIKLTELNAELNRKLIEALQRLFDLNVALVHLAAELTDPKRIADEIKKVKDKSKEIVERAEEEIARAAAESKKILDEAEEEIARAAAESKKILDEGSGSGSDAVAELQALNLKLAELLLEAVAELQALNLKLAELLLEAIAKLQELNIKLVELLTKLTDPATIREAIRKVKEDSERIVAEAERLIAAAKAESERIIREAERLIAAAKAESERIIREGSGSNDPQVAQNQETFIELARDALRLVAENQEAFIEVARLTLRAAALAQEVAIKAVEAASEGGSGSGNEIWIAQELRRIGDEFNAYYAEHKEIHDKLRKKNKKAREDLKKKADE
notes: as for B5
fold activation of binding by the cognate key (with key against without key) (Bcl2 [4]): 22 fold
